# Test results taken from PMC8699488, “Side-by-Side Comparison of Five Chelators for ^89Zr-Labeling of Biomolecules: Investigation of Chemical/Radiochemical Properties and Complex Stability” (Cancers, 2021).
# Key:
# [1] = Determination of logD(7.4), distribution between n-octanol and phosphate buffer pH 7.4; format: physicochemical; settings: n-octanol / 0.05-M phosphate buffer pH 7.4; 89Zr-labeled peptide-chelator conjugate
# Procedure: To a mixture of 1-octanol (800 µL) and 0.05-M phosphate buffer (775 µL, pH 7.4), a solution of the respective ^89Zr-labeled peptide conjugate (5µL of the before-obtained product solution, 0.8–1.2 MBq, 0.37–0.45 nmol) was added. The mixture was vigorously shaken for two minutes. Afterwards, the phases were separated by centrifugation. Two hundred microliters of each, the organic and the aqueous, phase were measured in a gamma counter. Each experiment was performed at least thrice, each in duplicate.
# The logD(7.4) values of the ^89Zr-labeled peptide–chelator conjugates were determined by their distribution coefficient between n-octanol and phosphate buffer at pH 7.4.
# [2] = EDTA-based 89Zr complex challenge experiments (relative kinetic inertness, radio-HPLC); format: physicochemical; settings: 10,000 eq. of EDTA, pH 7.0, 25 °C, transchelation monitored for up to 54 h by radio-HPLC
# Procedure: For each challenge experiment, three separate solutions of EDTA (14.61 mg, 50 µmol EDTA) in HEPES buffer (0.25 M, pH = 7.0, 380 µL) were prepared. The pH of the solutions was adjusted to pH 7.0 by the addition of a NaOH solution (30%, 12.5 µL), and Tracepur water (7.5 µL) was added to give a final volume of 400 µL of the EDTA solutions. To these solutions was added a solution of the respective ^89Zr-labeled peptide conjugate (5 nmol, 9.7–13.9 MBq), and the solutions were kept at 25 °C over the course of the experiment. At predefined time points, each solution was analyzed by analytical radio-HPLC for determination of the amount of ^89Zr transchelation. Each experiment was performed at least twice, each in triplicate.
# In order to directly compare and assess the kinetic inertness of the formed ^89Zr complexes of [^89Zr]Zr-29–[^89Zr]Zr-32, we performed complex challenge experiments using EDTA as the challenging agent of [^89Zr]Zr-30–[^89Zr]Zr-32 in comparison to [^89Zr]Zr-29 serving as the gold standard. […]
# integrin αvβ3 = tested on: integrin αvβ3; design: method as in PMID 28074920; settings: cited from earlier work
Compound,logD [1],kinetic inertness of the 89Zr complex against EDTA challenge [2],affinity for integrin αvβ3 (integrin αvβ3)
"CC(=O)N(O)CCCCCNC(=O)CCC(=O)N(O)CCCCCNC(=O)CCC(=O)N(O)CCCCCNC(=O)CCC(=O)NCc1ccc(-c2nncc3c2CCC(OC(=O)NCCCC[C@@H]2NC(=O)[C@@H](Cc4ccccc4)NC(=O)[C@H](CC(=O)O)NC(=O)CNC(=O)[C@H](CCCNC(=N)N)NC2=O)CCC3)cc1 (some centres unmarked) [[^89Zr]Zr-29, metal not drawn]",-2.32 ± 0.21,limited inertness and rapid transfer of the radiometal to EDTA,
c(RGDfK),,,high affinity
"CC(=O)N(O)CCCCCNC(=O)CCC(=O)N(O)CCCCCNC(=O)CCC(=O)N(O)CCCCCNC(=O)CCC(=O)N(O)CCCCCNC(=O)CCC(=O)NCc1ccc(-c2nncc3c2CCC(OC(=O)NCCCC[C@@H]2NC(=O)[C@@H](Cc4ccccc4)NC(=O)[C@H](CC(=O)O)NC(=O)CNC(=O)[C@H](CCCNC(=N)N)NC2=O)CCC3)cc1 (some centres unmarked) [[^89Zr]Zr-31, metal not drawn]",-2.49 ± 0.03,high resistance to the challenge,
